Reference: the supplement of paper PMC7877785
± gives the uncertainty stated by the source.

Test: self-splicing fitness, log relative to wild type (ln ratio); higher = more splicing; Tetrahymena group I intron in knt gene, E. coli kanamycin selection, DiMSum; sequences stand for … in CUCUCU…GGAGGGAAAAGUUAUCAGGCAUGCACCUGGUAGCUAGUCUUUAAACCAAUAGAUUGCAUCGGUUUAAAAGGCAAGACCGUCAAAUUGCGGGAAAGGGGUCAACAGCCGUUCAGUACCAAGUCUCAGGGGAAACUUUGAGAUGGCCUUGCAAAGGGUAUGGUAAUAAGCUGACGGACAUGGUCCUAACCACGCAGCCAAGUCCUAAGUCAACAGAUCUUCUGUUGAUAUGGAUGCAGUUCACAGACUAAAUGUCGGUCGGGGAAGAUGUAUUCUUCUCAUAAGAUAUAGUCGGACCUCUCCUUAAUGGGAGCUAGCGGAUGAAGUGAUGCAACACUGGAGCCGCUGGGAACUAAUUUGUAUGCGAAAGUAUAUUGAUUAGUUUUGGAGUACUCGUGGUCG
Summary of the method: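 A randomised library covering all eight P1ex-region intron nucleotides was built with the intron in the knt kanamycin-resistance gene on pET-22b(+) and held in E. coli BL21(DE3). Cells were grown overnight at 37°C or 30°C on LB agar, with or without 25 μg/mL kanamycin, plus 100 μg/mL carbenicillin, 50 μM IPTG and 0.2% rhamnose, and pooled colonies were amplicon-sequenced on an Illumina HiSeq 2500. DiMSum fitness is the error-weighted combination of wild-type-normalised replicate fold changes, kanamycin versus none.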

| Sequence | self-splicing fitness (ln) (30 °C) | self-splicing fitness (ln) (37 °C) |
| --- | --- | --- |
| GCAAAGCAAUAUUACGCGAU | -2.8 ± 0.23 | -2.73 ± 0.3 |
| GCAAAGCAAUAUUACGCGUA | -0.985 ± 0.075 | -0.362 ± 0.071 |
| GCAAAGCAAUAUUACGGCCG | -0.0405 ± 0.18 | -1.41 ± 0.33 |
| GCAAAGCAAUAUUACGGCCU | -0.867 ± 0.12 | -0.967 ± 0.16 |
| GCAAAGCAAUAUUACGGCGG | -1.18 ± 0.13 | -2.07 ± 0.2 |
| GCAAAGCAAUAUUACGGGGA | -2.9 ± 0.16 | -1.99 ± 0.15 |
| GCAAAGCAAUAUUACGGUAC | -1.91 ± 0.086 | 0.0303 ± 0.092 |
| GCAAAGCAAUAUUACGGUGC | -2.45 ± 0.12 | -3.66 ± 0.27 |
| GCAAAGCAAUAUUACGGUGU | -4.55 ± 0.29 | -2.71 ± 0.25 |
| GCAAAGCAAUAUUACGUGCG | -0.856 ± 0.067 | -0.144 ± 0.095 |
| GCAAAGCAAUAUUACGUUCC | -0.778 ± 0.082 | -0.849 ± 0.14 |
| GCAAAGCAAUAUUACGUUGG | -1.94 ± 0.069 | -1.32 ± 0.09 |
| GCAAAGCAAUAUUACGUUUG | -4.2 ± 0.17 | -3.24 ± 0.15 |
| GCACAGCAAUAUUACGAACC | -0.135 ± 0.15 | 0.621 ± 0.18 |
| GCACAGCAAUAUUACGAACU | -0.419 ± 0.056 | -0.167 ± 0.072 |
| GCACAGCAAUAUUACGACAA | -1.18 ± 0.087 | -1.22 ± 0.087 |
| GCACAGCAAUAUUACGACCU | -0.6 ± 0.11 | -0.325 ± 0.13 |
| GCACAGCAAUAUUACGACGG | -1.34 ± 0.098 | -0.832 ± 0.13 |
| GCACAGCAAUAUUACGACUU | -0.119 ± 0.076 | 0.33 ± 0.088 |
| GCACAGCAAUAUUACGAGAG | -2.96 ± 0.14 | -1.33 ± 0.11 |
| GCACAGCAAUAUUACGCACC | -0.769 ± 0.13 | 0.129 ± 0.15 |
| GCACAGCAAUAUUACGCAGA | -3.16 ± 0.28 | -3.06 ± 0.29 |
| GCACAGCAAUAUUACGCAGG | -3.5 ± 0.18 | -2.74 ± 0.18 |
| GCACAGCAAUAUUACGCGGU | -4.01 ± 0.2 | -1.87 ± 0.11 |
| GCACAGCAAUAUUACGCUGG | -3.29 ± 0.18 | -1.92 ± 0.15 |

| Sequence | self-splicing fitness (ln) (30 °C) | self-splicing fitness (ln) (37 °C) |
| --- | --- | --- |
| GCACAGCAAUAUUACGGAAC | -1.06 ± 0.086 | -0.752 ± 0.12 |
| GCACAGCAAUAUUACGGAGG | -2 ± 0.099 | -0.502 ± 0.11 |
| GCACAGCAAUAUUACGGAUU | -0.914 ± 0.055 | -0.231 ± 0.073 |
| GCACAGCAAUAUUACGGCAA | -1.31 ± 0.13 | -0.887 ± 0.14 |
| GCACAGCAAUAUUACGGCCA | -1.84 ± 0.21 | -0.441 ± 0.19 |
| GCACAGCAAUAUUACGGCUG | -3.49 ± 0.13 | -2.4 ± 0.14 |
| GCACAGCAAUAUUACGGGGC | -3.43 ± 0.16 | -2.62 ± 0.18 |
| GCACAGCAAUAUUACGGUCU | -0.685 ± 0.042 | 0.63 ± 0.06 |
| GCACAGCAAUAUUACGGUGG | -1.54 ± 0.048 | -1.35 ± 0.07 |
| GCACAGCAAUAUUACGGUUG | -2.18 ± 0.059 | -1.02 ± 0.072 |
| GCACAGCAAUAUUACGUCGG | -1.72 ± 0.1 | -1.09 ± 0.13 |
| GCACAGCAAUAUUACGUGAC | -1.13 ± 0.089 | -1.97 ± 0.1 |
| GCACAGCAAUAUUACGUUCG | -0.717 ± 0.065 | -0.441 ± 0.085 |
| GCAGAGCAAUAUUACGACCG | -3.12 ± 0.46 | – |
| GCAGAGCAAUAUUACGAGCA | -2.32 ± 0.24 | -2.4 ± 0.34 |
| GCAGAGCAAUAUUACGAGGU | – | -2.24 ± 0.31 |
| GCAGAGCAAUAUUACGAGUC | -2.97 ± 0.25 | -2.39 ± 0.32 |
| GCAGAGCAAUAUUACGAUAC | -2.79 ± 0.28 | -0.699 ± 0.22 |
| GCAGAGCAAUAUUACGAUAU | -3.38 ± 0.29 | -1.72 ± 0.2 |
| GCAGAGCAAUAUUACGAUGC | -4.01 ± 0.32 | -1.99 ± 0.18 |
| GCAGAGCAAUAUUACGCAUC | -3.14 ± 0.34 | – |
| GCAGAGCAAUAUUACGCGAU | -2.94 ± 0.36 | – |
| GCAGAGCAAUAUUACGCGUC | -3.88 ± 0.2 | -2.03 ± 0.14 |
| GCAGAGCAAUAUUACGCUGU | -2.66 ± 0.18 | -2.87 ± 0.23 |
| GCAGAGCAAUAUUACGGACU | -2.18 ± 0.34 | -1.9 ± 0.21 |

| Sequence | self-splicing fitness (ln) (30 °C) | self-splicing fitness (ln) (37 °C) |
| --- | --- | --- |
| GCAGAGCAAUAUUACGGUGG | -3.65 ± 0.33 | -2.21 ± 0.21 |
| GCAGAGCAAUAUUACGGUGU | -4.3 ± 0.32 | -2.31 ± 0.16 |
| GCAGAGCAAUAUUACGUAAU | -2.29 ± 0.21 | -1.95 ± 0.35 |
| GCAGAGCAAUAUUACGUCAG | – | -2.97 ± 0.29 |
| GCAGAGCAAUAUUACGUGGG | -3.55 ± 0.12 | -3.03 ± 0.15 |
| GCAUAGCAAUAUUACGAAAG | -2.72 ± 0.2 | -2.69 ± 0.24 |
| GCAUAGCAAUAUUACGAAGG | -2.02 ± 0.2 | -1.31 ± 0.22 |
| GCAUAGCAAUAUUACGAAGU | -3.88 ± 0.28 | – |
| GCAUAGCAAUAUUACGACCU | -0.833 ± 0.15 | -0.375 ± 0.15 |
| GCAUAGCAAUAUUACGACUC | -0.352 ± 0.16 | 0.841 ± 0.13 |
| GCAUAGCAAUAUUACGAGGU | -3.73 ± 0.4 | -2.07 ± 0.4 |
| GCAUAGCAAUAUUACGAGUU | -3.15 ± 0.13 | -1.33 ± 0.1 |
| GCAUAGCAAUAUUACGAUAA | -2.1 ± 0.15 | -1.27 ± 0.13 |
| GCAUAGCAAUAUUACGCCGC | – | -1.28 ± 0.27 |
| GCAUAGCAAUAUUACGCGGA | – | -1.69 ± 0.31 |
| GCAUAGCAAUAUUACGCUUC | – | -2.69 ± 0.19 |
| GCAUAGCAAUAUUACGGACA | -1.74 ± 0.15 | -0.572 ± 0.14 |
| GCAUAGCAAUAUUACGGGCU | -2.22 ± 0.23 | -0.579 ± 0.17 |
| GCAUAGCAAUAUUACGGGGU | -3.74 ± 0.23 | -1.99 ± 0.13 |
| GCAUAGCAAUAUUACGUAAC | -2.24 ± 0.13 | -1.57 ± 0.14 |
| GCAUAGCAAUAUUACGUACU | -0.89 ± 0.07 | -0.056 ± 0.079 |
| GCAUAGCAAUAUUACGUCGU | -3.44 ± 0.17 | -1.06 ± 0.13 |
| GCCAAGCAAUAUUACGAAAA | -2.45 ± 0.27 | -1.54 ± 0.2 |
| GCCAAGCAAUAUUACGAAUC | -1.25 ± 0.078 | -1.5 ± 0.095 |
| GCCAAGCAAUAUUACGAAUU | -3.39 ± 0.13 | -1.51 ± 0.1 |

| Sequence | self-splicing fitness (ln) (30 °C) | self-splicing fitness (ln) (37 °C) |
| --- | --- | --- |
| GCCAAGCAAUAUUACGACCC | -0.14 ± 0.14 | -0.813 ± 0.17 |
| GCCAAGCAAUAUUACGACUA | -1.82 ± 0.17 | -1.77 ± 0.16 |
| GCCAAGCAAUAUUACGAGAC | -2.73 ± 0.18 | -0.746 ± 0.12 |
| GCCAAGCAAUAUUACGAGGC | -2.66 ± 0.16 | -1.93 ± 0.21 |
| GCCAAGCAAUAUUACGAUGC | -1.7 ± 0.09 | -0.188 ± 0.11 |
| GCCAAGCAAUAUUACGCAAU | -1.35 ± 0.075 | -0.812 ± 0.082 |
| GCCAAGCAAUAUUACGCCGA | -1.64 ± 0.15 | -0.102 ± 0.11 |
| GCCAAGCAAUAUUACGCCGC | -2.92 ± 0.31 | -1.02 ± 0.28 |
| GCCAAGCAAUAUUACGCGCC | -3.75 ± 0.27 | -2.56 ± 0.32 |
| GCCAAGCAAUAUUACGGACA | -1.12 ± 0.11 | 0.31 ± 0.093 |
| GCCAAGCAAUAUUACGGCAA | -2.23 ± 0.17 | -1.06 ± 0.15 |
| GCCAAGCAAUAUUACGGCCC | -2.13 ± 0.2 | -1.57 ± 0.22 |
| GCCAAGCAAUAUUACGGCUU | -5.36 ± 0.34 | -3.31 ± 0.19 |
| GCCAAGCAAUAUUACGGGUC | -3.34 ± 0.18 | -2.8 ± 0.27 |
| GCCAAGCAAUAUUACGGUGC | -3.11 ± 0.24 | -2.14 ± 0.21 |
| GCCAAGCAAUAUUACGGUUU | -1.08 ± 0.047 | -0.943 ± 0.07 |
| GCCAAGCAAUAUUACGUAUU | -3.29 ± 0.16 | -2.28 ± 0.14 |
| GCCAAGCAAUAUUACGUCGU | -0.691 ± 0.058 | -0.359 ± 0.066 |
| GCCAAGCAAUAUUACGUCUU | -3.28 ± 0.2 | -2.38 ± 0.16 |
| GCCAAGCAAUAUUACGUGAG | -1.17 ± 0.071 | -0.535 ± 0.084 |
| GCCAAGCAAUAUUACGUGCU | -3.04 ± 0.11 | -1.56 ± 0.092 |
| GCCAAGCAAUAUUACGUGUC | -1.62 ± 0.06 | -0.848 ± 0.075 |
| GCCAAGCAAUAUUACGUUUG | -3.38 ± 0.16 | -2.61 ± 0.21 |
